From the supplement of paper PMC6757056
± gives the standard deviation of the averaged measurements.

B1: library; a variant is named by its letters at N, in order (parent)
chain: GCUGUCACCGAGAAACUGUGAAGUAUAUCUUAAACCUGGGCACUUAAAAGAUAUAUGGAGUUAGUAGUGCAACCUGCUCGGUCUGAUGAGUCCNNNNNNGGACGAAACAGC

Key:
cyclic di-GMP [1] = variants of: B1; experiment: FACS-Seq fitted mean relative fluorescence mCherry/BFP without ligand (log10 relative fluorescence); HEK293T; ligand: cyclic di-GMP (c-di-GMP-II aptamer); higher = higher reporter protein expression; settings: ligand present: no
Description: (§1)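 Hammerhead (sTRSV) ribozyme switch libraries with a ligand aptamer grafted on stem I and a randomized N4-6 loop II, cloned into the 3' UTR of mCherry and transiently transfected into HEK293T cells; RNA-Seq 72 h post transfection with ligand added 1 h before transfection; RNA read count / plasmid DNA read count normalized to the non-cleaving sTRSVctl (x100), log10; sequences with >100 DNA reads. FACS-Seq: lentiviral library sorted into 6 bins after 48 h ligand, log-normal fit mean of mCherry/BFP scaled to controls. Printed sequences are partial switch sequences.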

cyclic di-GMP [2] = variants of: B1; experiment: normalized RNA/DNA level without ligand (relative to sTRSVctl = 100) (log10 (% of sTRSVctl)); HEK293T; ligand: cyclic di-GMP (c-di-GMP-II aptamer); higher = less ribozyme self-cleavage, higher mRNA level; settings: reporter: mCherry (pCS4076), ligand present: no
Description: as §1

cyclic di-GMP [3] = variants of: B1; experiment: FACS-Seq fitted mean relative fluorescence mCherry/BFP with ligand (log10 relative fluorescence); HEK293T; ligand: cyclic di-GMP (c-di-GMP-II aptamer); ligand concentration (+) FACS-Seq: 1 mM; higher = higher reporter protein expression; settings: ligand present: yes
Description: as §1

cyclic di-GMP [4] = variants of: B1; experiment: normalized RNA/DNA level with ligand (relative to sTRSVctl = 100) (log10 (% of sTRSVctl)); HEK293T; ligand: cyclic di-GMP (c-di-GMP-II aptamer); ligand concentration (+) RNA-Seq: 1 mM; higher = less ribozyme self-cleavage, higher mRNA level; settings: reporter: mCherry (pCS4076), ligand present: yes
Description: as §1

| Variant | FACS-Seq fitted mean (log10) (cyclic di-GMP [1]) | normalized RNA/DNA level without ligand (log10) (cyclic di-GMP [2]) | FACS-Seq fitted mean (log10) (cyclic di-GMP [3]) | normalized RNA/DNA level with ligand (log10) (cyclic di-GMP [4]) |
| --- | --- | --- | --- | --- |
| AGCACG | -0.192 ± 0.0049 | 1.61 ± 0.036 | 0.065 ± 0.026 | 1.77 ± 0.13 |
| UAAACA | 0.0579 ± 0.081 | 1.742 ± 0.0053 | 0.349 ± 0.078 | 1.85 ± 0.079 |
| AGGAGA | -0.574 ± 0.012 | 1.37 ± 0.12 | -0.304 ± 0.011 | 1.48 ± 0.025 |
| AAGACG | -0.185 ± 0.037 | 1.54 ± 0.084 | 0.133 ± 0.15 | 1.73 ± 0.097 |
| CAAAUU | -0.59 ± 0.046 | 1.45 ± 0.12 | -0.349 ± 0.046 | 1.67 ± 0.076 |
| GUGAAA | -0.574 ± 0.012 | 1.41 ± 0.17 | -0.227 ± 0.085 | 1.62 ± 0.059 |
| CCCUAG | -0.7711 ± 0.0036 | 1.65 ± 0.031 | -0.624 ± 0.025 | 1.84 ± 0.13 |
| CAGUAA | -0.526 ± 0.094 | 1.14 ± 0.14 | -0.22 ± 0.0072 | 1.33 ± 0.073 |
| ACAGCG | -0.358 ± 0.013 | 1.75 ± 0.0045 | -0.079 ± 0.031 | 1.86 ± 0.1 |
| UAUCAC | 0.171 ± 0.13 | 1.75 ± 0.0055 | 0.375 ± 0.051 | 1.87 ± 0.11 |
| GAUAAA | -0.481 ± 0.013 | 1.47 ± 0.065 | -0.1618 ± 0.00059 | 1.63 ± 0.1 |
| AAACAU | -0.286 ± 0.077 | 1.6 ± 0.019 | -0.0737 ± 0.18 | 1.77 ± 0.11 |
| GUUUUU | -0.978 ± 0.05 | 1.715 ± 0.0068 | -0.711 ± 0.12 | 1.87 ± 0.12 |
| AGCGGU | -0.189 ± 0.03 | 1.64 ± 0.024 | 0.149 ± 0.093 | 1.8 ± 0.1 |
| GCCAUA | 0.0302 ± 0.039 | 1.55 ± 0.05 | 0.269 ± 0.026 | 1.72 ± 0.069 |
| UGAAUC | -0.558 ± 0.0095 | 1.72 ± 0.011 | -0.4 ± 0.028 | 1.85 ± 0.083 |
| AGGAAU | -0.199 ± 0.032 | 1.6 ± 0.042 | 0.123 ± 0.1 | 1.76 ± 0.1 |
| AGGAAG | -0.88 ± 0.017 | 1.38 ± 0.13 | -0.6586 ± 0.0033 | 1.52 ± 0.13 |
| AGCCAA | -0.274 ± 0.071 | 1.53 ± 0.072 | -0.0148 ± 0.057 | 1.73 ± 0.053 |
| UACGGA | -1.08 ± 0.21 | 1.61 ± 0.053 | -0.994 ± 0.18 | 1.76 ± 0.1 |
| UAUAGC | -0.313 ± 0.039 | 1.73 ± 0.044 | -0.0839 ± 0.078 | 1.83 ± 0.19 |
| GCAUAG | -0.627 ± 0.0092 | 1.44 ± 0.085 | -0.39 ± 0.049 | 1.66 ± 0.093 |
| CACAUA | -0.521 ± 0.032 | 1.26 ± 0.07 | -0.272 ± 0.044 | 1.52 ± 0.093 |
| AAGGAA | -0.627 ± 0.048 | 1.35 ± 0.13 | -0.409 ± 0.03 | 1.51 ± 0.069 |

| Variant | FACS-Seq fitted mean (log10) (cyclic di-GMP [1]) | normalized RNA/DNA level without ligand (log10) (cyclic di-GMP [2]) | FACS-Seq fitted mean (log10) (cyclic di-GMP [3]) | normalized RNA/DNA level with ligand (log10) (cyclic di-GMP [4]) |
| --- | --- | --- | --- | --- |
| UGAUGA | -0.253 ± 0.0055 | 1.58 ± 0.033 | 0.00931 ± 0.037 | 1.8 ± 0.099 |
| GAUGGA | -0.376 ± 0.014 | 1.42 ± 0.14 | -0.11 ± 0.031 | 1.61 ± 0.097 |
| UGAGUG | -0.0499 ± 0.13 | 1.7246 ± 0.00091 | 0.259 ± 0.047 | 1.83 ± 0.091 |
| AACGAU | -0.207 ± 0.075 | 1.57 ± 0.052 | 0.0583 ± 0.17 | 1.76 ± 0.096 |
| GUGCAU | -0.575 ± 0.042 | 1.73 ± 0.028 | -0.302 ± 0.062 | 1.85 ± 0.18 |
| GCAAUC | -0.612 ± 0.083 | 1.27 ± 0.1 | -0.425 ± 0.016 | 1.52 ± 0.1 |
| GCAAUG | -0.186 ± 0.0033 | 1.45 ± 0.14 | 0.131 ± 0.072 | 1.64 ± 0.069 |
| CUCGAA | -0.00262 ± 0.0023 | 1.41 ± 0.12 | 0.32 ± 0.035 | 1.6 ± 0.097 |
| GUAUGA | -0.487 ± 0.16 | 1.42 ± 0.092 | -0.189 ± 0.072 | 1.67 ± 0.081 |
| GAUGUA | -0.456 ± 0.056 | 1.662 ± 0.0051 | -0.166 ± 0.016 | 1.77 ± 0.11 |
| GCAACA | -0.823 ± 0.12 | 1.55 ± 0.048 | -0.56 ± 0.014 | 1.75 ± 0.12 |
| ACUGGA | -0.72 ± 0.0076 | 1.39 ± 0.091 | -0.5113 ± 0.0047 | 1.59 ± 0.087 |
| ACCUGA | -0.424 ± 0.033 | 1.52 ± 0.032 | -0.159 ± 0.035 | 1.72 ± 0.1 |
| UUAGUG | -0.38 ± 0.014 | 1.625 ± 0.0063 | -0.0431 ± 0.00068 | 1.81 ± 0.091 |
| CCCCUG | -0.147 ± 0.12 | 1.69 ± 0.045 | 0.154 ± 0.1 | 1.84 ± 0.097 |
| GAUCGA | -0.635 ± 0.0097 | 1.64 ± 0.033 | -0.425 ± 0.16 | 1.78 ± 0.094 |
| GUAGAU | -0.404 ± 0.035 | 1.55 ± 0.057 | -0.145 ± 0.055 | 1.72 ± 0.08 |
| CAAACA | -0.651 ± 0.025 | 1.34 ± 0.069 | -0.439 ± 0.079 | 1.62 ± 0.11 |
| UGGAAU | -0.121 ± 0.12 | 1.57 ± 0.041 | 0.272 ± 0.075 | 1.77 ± 0.13 |
| AAGCCA | -0.228 ± 0.096 | 1.63 ± 0.029 | -0.278 ± 0.12 | 1.79 ± 0.16 |
| GCGGAA | -0.527 ± 0.013 | 1.33 ± 0.21 | -0.19 ± 0.061 | 1.54 ± 0.1 |
| GCGGAG | -0.301 ± 0.022 | 1.53 ± 0.13 | -0.076 ± 0.067 | 1.7 ± 0.055 |
| GGACCC | 0.129 ± 0.17 | 1.86 ± 0.022 | 0.32 ± 0.061 | 1.93 ± 0.086 |
| GUUCUA | -0.743 ± 0.033 | 1.635 ± 0.0068 | -0.5214 ± 0.0042 | 1.75 ± 0.095 |

| Variant | FACS-Seq fitted mean (log10) (cyclic di-GMP [1]) | normalized RNA/DNA level without ligand (log10) (cyclic di-GMP [2]) | FACS-Seq fitted mean (log10) (cyclic di-GMP [3]) | normalized RNA/DNA level with ligand (log10) (cyclic di-GMP [4]) |
| --- | --- | --- | --- | --- |
| GCGCUC | 0.151 ± 0.12 | 1.45 ± 0.13 | 0.324 ± 0.017 | 1.62 ± 0.17 |
| CGUGCA | -0.119 ± 0.16 | 1.68 ± 0.078 | 0.0822 ± 0.039 | 1.79 ± 0.1 |
| CCGCCA | -0.184 ± 0.045 | 1.645 ± 0.0073 | 0.127 ± 0.058 | 1.85 ± 0.14 |
| ACAUAA | -0.3987 ± 0.0024 | 1.39 ± 0.12 | -0.112 ± 0.0021 | 1.63 ± 0.063 |
| CCGGCU | -0.0371 ± 0.0037 | 1.74 ± 0.033 | 0.118 ± 0.024 | 1.89 ± 0.077 |
| UAAUUU | -0.1701 ± 0.00076 | 1.688 ± 0.0068 | -0.0196 ± 0.026 | 1.87 ± 0.11 |
| CUGGAA | -0.647 ± 0.051 | 1.26 ± 0.1 | -0.397 ± 0.011 | 1.41 ± 0.06 |
| UCGGUA | -0.583 ± 0.023 | 1.31 ± 0.18 | -0.2658 ± 0.00058 | 1.52 ± 0.054 |
| CGAAAC | -0.432 ± 0.051 | 1.62 ± 0.048 | -0.267 ± 0.02 | 1.77 ± 0.097 |
| CGAAAA | -0.423 ± 0.02 | 1.26 ± 0.084 | -0.315 ± 0.07 | 1.47 ± 0.1 |
| CAUCAA | -0.3769 ± 0.0032 | 1.32 ± 0.035 | -0.0581 ± 0.076 | 1.57 ± 0.057 |
| CAAGAA | -0.432 ± 0.1 | 1.23 ± 0.12 | -0.059 ± 0.057 | 1.48 ± 0.13 |
| CGUACA | -0.654 ± 0.072 | 1.32 ± 0.032 | -0.354 ± 0.046 | 1.53 ± 0.12 |
| AGAGGA | -0.441 ± 0.0074 | 1.4 ± 0.11 | -0.212 ± 0.025 | 1.56 ± 0.11 |
| CUAUAA | -0.473 ± 0.065 | 1.41 ± 0.079 | -0.255 ± 0.021 | 1.6 ± 0.11 |
| GUUCCA | -0.877 ± 0.03 | 1.65 ± 0.022 | -0.674 ± 0.016 | 1.81 ± 0.12 |
| AACCAU | -0.0934 ± 0.098 | 1.6 ± 0.025 | 0.0926 ± 0.016 | 1.76 ± 0.15 |
| CGCGUA | -0.52 ± 0.06 | 1.45 ± 0.16 | -0.224 ± 0.062 | 1.638 ± 0.011 |
| CGCUAU | -1.02 ± 0.037 | 1.41 ± 0.12 | -0.866 ± 0.11 | 1.64 ± 0.094 |
| UAGUUU | -0.234 ± 0.073 | 1.675 ± 0.0087 | 0.0254 ± 0.084 | 1.85 ± 0.081 |
| AAAUGC | -0.0259 ± 0.11 | 1.642 ± 0.01 | 0.294 ± 0.022 | 1.79 ± 0.09 |
| AAAUGA | -0.5596 ± 0.00088 | 1.43 ± 0.061 | -0.289 ± 0.037 | 1.62 ± 0.089 |
| CGCUGA | -0.177 ± 0.072 | 1.53 ± 0.057 | 0.0499 ± 0.0086 | 1.72 ± 0.067 |
